In US20240059770A1:

Molecular target: human glucose-dependent insulinotrophic polypeptide (GIP) (human)
Experiment: sandwich immunoassay (MSD ECL): C-Terminal Antibody as capture, ruthenium-labelled N-Terminal Antibody as detection

Sequence of human glucose-dependent insulinotrophic polypeptide (GIP) (human) (peptide, as listed by the source): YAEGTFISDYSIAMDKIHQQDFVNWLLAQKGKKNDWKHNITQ

percent cross-reactivity (ECL against human oxyntomodulin (53-89), blank subtracted): 0.12%
B1: Anti-Human Oxyntomodulin N-Terminal Antibody (antibody, V domains shown)
VH: QIQLVQSGPELKKPGETVKISCKASGYTFTDYAFSWVKQAPGKGLKWMGWITTNTGEATYADDFKGRFAFSLETSASTAYLQISNLKNEDTATYFCARETEYGDSSWFGHWGQGTLVTVSA
VL: DIVLTQSPASLAVSLGQRATISCRASESVDGWGNSFMHWYQQKPGQPPKLLIYLATYRVAGIPARFSGSGSRTDFTLTINPVEADDVATYYCMQSSEDPYTFGGGTKLEIKR
